From patent publication US20070218069A1 (published 2007)
Changes are numbered by the printed parent chain.

B1: Fab apu02 (Fab, V domains shown)
VH: EVQLVESGGGLVQPGGSLRLSCAASGFNVSYSYMHWVRQAPGKGLEWVASISSYYSYTSYADSVKGRFTISADTSKNTAYLQMNSLRAEDTAVYYCARSYSYYSAIDYWGQGTLVTVSS
VL: DIQMTQSPSSLSASVGDRVTITCRASQSVSSAVAWYQQKPGKAPKLLIYSASSLYSGVPSRFSGSRSGTDFTLTISSLQPEDFATYYCQQSSYSSLFTFGQGTKVEIK
B2: Fab apu11 (Fab, V domains shown)
VH: EVQLVESGGGLVQPGGSLRLSCAASGFNVSYYYIHWVRQAPGKGLEWVASISSYYGYTSYADSVKGRFTISADTSKNTAYLQMNSLRAEDTAVYYCARENYWWAIDYWGQGTLVTVSS
VL: B1 VL with S92Y, S94Y, S95Y, L96P, F97I
B3: Fab apu13 (Fab, V domains shown)
VH: B1 VH with S32Y, Y33S, M34I, S52Y, S53P, Y103S, S104Y, A105G, I106L
VL: DIQMTQSPSSLSASVGDRVTITCRASQSVSSAVAWYQQKPGKAPKLLIYSASSLYSGVPSRFSGSRSGTDFTLTISSLQPEDFATYYCQQYSSSYYPFTFGQGTKVEIK
B4: Fab apu07 (Fab, V domains shown)
VH: EVQLVESGGGLVQPGGSLRLSCAASGFNLSYSYIHWVRQAPGKGLEWVASISSYYGSTSYADSVKGRFTISADTSKNTAYLQMNSLRAEDTAVYYCARESFYYSPAFDYWGQGTLVTVSS
VL: B1 VL with S92Y, S94Y
B5: Fab apu2.07 (Fab, V domains shown)
VH: B1 VH with V29I, Y33S, S52Y, Y103H, S104L, A105G, I106M
VL: B1 VL with F97I
B6: Fab apu2.01 (Fab, V domains shown)
VH: B1 VH with V29I, Y33S, S52Y, Y103S, S104E, I106L
VL: B1 VL with F97I
B7: Fab apu2.08 (Fab, V domains shown)
VH: B1 VH with V29I, Y33S, S52Y, Y103S, S104V, A105G, I106M
VL: B1 VL with F97I
B8: Fab apu2.04 (Fab, V domains shown)
VH: B1 VH with V29I, Y33S, S52Y, Y103S, S104F, A105G, I106M
VL: B1 VL with F97I
B9: Fab apu2.10 (Fab, V domains shown)
VH: B1 VH with V29I, Y33S, S52Y, Y103F, S104L, I106M
VL: B1 VL with F97I
B10: Fab apu2.05 (Fab, V domains shown)
VH: B1 VH with V29I, Y33S, S52Y, Y103R, S104M, I106F
VL: B1 VL with F97I
B11: Fab apu2.02 (Fab, V domains shown)
VH: B1 VH with V29I, S30F, S32G, Y33G, M34I, S52Y, I106M
VL: B1 VL with F97I
B12: Fab apu2.09 (Fab, V domains shown)
VH: B1 VH with V29I, Y33S, S52Y, Y103H, S104V, I106F
VL: B1 VL with F97I
B13: Fab apu2.06 (Fab, V domains shown)
VH: B1 VH with V29I, Y33S, S52Y, S99G, Y102W, Y103F, S104N
VL: B1 VL with F97I
B14: Fab apu2.03 (Fab, V domains shown)
VH: B1 VH with V29I, Y33S, S52Y, Y103S, S104L, I106F
VL: B1 VL with F97I

target: T1, K48-linked diubiquitin (human, UniProt P0CG48 1-76, isopeptide bond between Lys48 of one ubiquitin and the C-terminal Gly of the other); assay: SPR Biacore, antigen immobilized
T1 construct: Boston Biochem

Kd	koff	kon	Binder
12.7 nM	0.00696 s⁻¹	546000 M⁻¹ s⁻¹	B1
19.6 nM	0.0177 s⁻¹	904000 M⁻¹ s⁻¹	B2
139 nM	0.016 s⁻¹	115000 M⁻¹ s⁻¹	B3
9.49 nM	0.00993 s⁻¹	1.05e+06 M⁻¹ s⁻¹	B4

target: T1, K48-linked diubiquitin; assay: SPR Biacore, antigen immobilized; remark: another data set of the same source

Kd	koff	kon	Binder
1.18 nM	0.00318 s⁻¹	2.7e+06 M⁻¹ s⁻¹	B5
23.5 nM	0.0149 s⁻¹	633000 M⁻¹ s⁻¹	B6
5.76 nM	0.00721 s⁻¹	1.25e+06 M⁻¹ s⁻¹	B7
15.1 nM	0.00939 s⁻¹	622000 M⁻¹ s⁻¹	B8
1.21 nM	0.00399 s⁻¹	3.28e+06 M⁻¹ s⁻¹	B9
5.06 nM	0.00609 s⁻¹	1.2e+06 M⁻¹ s⁻¹	B10
9.16 nM	0.0101 s⁻¹	1.11e+06 M⁻¹ s⁻¹	B11
6.69 nM	0.00478 s⁻¹	715000 M⁻¹ s⁻¹	B12
1.87 nM	0.0024 s⁻¹	1.28e+06 M⁻¹ s⁻¹	B13
3.07 nM	0.00266 s⁻¹	867000 M⁻¹ s⁻¹	B14
